Experiment: First-order nonenzymatic deamidation of pentapeptides in Tris buffer
Type: physicochemical
Details: pH 7.4, 37.0° C., 0.15 M Tris HCl; Asn pentapeptides
Summary of the method: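 Pentapeptides containing Asn or Gln in varied flanking sequences incubated at 37° C., pH 7.4, 0.15 M Tris buffer; first-order deamidation rates measured. Some Asn values estimated from remaining data; many Gln values derived from surface fitting rather than measured.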

| Substance | First-Order Deamidation Halftimes of GlyXxxAsnYyyGly [days] |
| --- | --- |
| GlyHisAsnIleGly (GHNIG; printed: GlyHisAsnIleGly) | 327 |
| GlyHisAsnLeuGly (GHNLG; printed: GlyHisAsnLeuGly) | 116 |
| GlyHisAsnLysGly (GHNKG; printed: GlyHisAsnLysGly) | 50.2 |
| GlyHisAsnMetGly (GHNMG; printed: GlyHisAsnMetGly) | 63.1 |
| GlyHisAsnPheGly (GHNFG; printed: GlyHisAsnPheGly) | 72.1 |
| GlyHisAsnProGly (GHNPG; printed: GlyHisAsnProGly) | 8440 |
| GlyHisAsnSerGly (GHNSG; printed: GlyHisAsnSerGly) | 15.7 |
| GlyHisAsnThrGly (GHNTG; printed: GlyHisAsnThrGly) | 47.2 |
| GlyHisAsnTrpGly (GHNWG; printed: GlyHisAsnTrpGly) | 95.4 |
| GlyHisAsnTyrGly (GHNYG; printed: GlyHisAsnTyrGly) | 82.3 |
| GlyHisAsnValGly (GHNVG; printed: GlyHisAsnValGly) | 247 |
| GlyIleAsnAlaGly (GINAG; printed: GlyIleAsnAlaGly) | 25.9 |
| GlyIleAsnAmCysGly | 33.0 |
| GlyIleAsnArgGly (GINRG; printed: GlyIleAsnArgGly) | 66.4 |
| GlyIleAsnAspGly (GINDG; printed: GlyIleAsnAspGly) | 33.8 |
| GlyIleAsnCysGly (GINCG; printed: GlyIleAsnCysGly) | 52.7 |
| GlyIleAsnGluGly (GINEG; printed: GlyIleAsnGluGly) | 58.6 |
| GlyIleAsnGlyGly (GINGG; printed: GlyIleAsnGlyGly) | 1.26 |
| GlyIleAsnHisGly (GINHG; printed: GlyIleAsnHisGly) | 11.5 |
| GlyIleAsnIleGly (GINIG; printed: GlyIleAsnIleGly) | 384 |
| GlyIleAsnLeuGly (GINLG; printed: GlyIleAsnLeuGly) | 154 |
| GlyIleAsnLysGly (GINKG; printed: GlyIleAsnLysGly) | 64.4 |

| Substance | First-Order Deamidation Halftimes of GlyXxxAsnYyyGly [days] |
| --- | --- |
| GlyIleAsnMetGly (GINMG; printed: GlyIleAsnMetGly) | 58.8 |
| GlyIleAsnPheGly (GINFG; printed: GlyIleAsnPheGly) | 61.5 |
| GlyIleAsnProGly (GINPG; printed: GlyIleAsnProGly) | 11600 |
| GlyIleAsnSerGly (GINSG; printed: GlyIleAsnSerGly) | 14.5 |
| GlyIleAsnThrGly (GINTG; printed: GlyIleAsnThrGly) | 46.3 |
| GlyIleAsnTrpGly (GINWG; printed: GlyIleAsnTrpGly) | 86.7 |
| GlyIleAsnTyrGly (GINYG; printed: GlyIleAsnTyrGly) | 79.3 |
| GlyIleAsnValGly (GINVG; printed: GlyIleAsnValGly) | 295 |
| GlyLeuAsnAlaGly (GLNAG; printed: GlyLeuAsnAlaGly) | 25.1 |
| GlyLeuAsnAmCysGly | 33.6 |
| GlyLeuAsnArgGly (GLNRG; printed: GlyLeuAsnArgGly) | 62.1 |
| GlyLeuAsnAspGly (GLNDG; printed: GlyLeuAsnAspGly) | 32.1 |
| GlyLeuAsnCysGly (GLNCG; printed: GlyLeuAsnCysGly) | 53.5 |
| GlyLeuAsnGluGly (GLNEG; printed: GlyLeuAsnGluGly) | 56.7 |
| GlyLeuAsnGlyGly (GLNGG; printed: GlyLeuAsnGlyGly) | 1.08 |
| GlyLeuAsnHisGly (GLNHG; printed: GlyLeuAsnHisGly) | 10.7 |
| GlyLeuAsnIleGly (GLNIG; printed: GlyLeuAsnIleGly) | 391 |
| GlyLeuAsnLeuGly (GLNLG; printed: GlyLeuAsnLeuGly) | 155 |
| GlyLeuAsnLysGly (GLNKG; printed: GlyLeuAsnLysGly) | 60.1 |
| GlyLeuAsnMetGly (GLNMG; printed: GlyLeuAsnMetGly) | 62.6 |
| GlyLeuAsnPheGly (GLNFG; printed: GlyLeuAsnPheGly) | 72.4 |
| GlyLeuAsnProGly (GLNPG; printed: GlyLeuAsnProGly) | 10500 |

Same assay, conditions: pH 7.4, 37.0 ° C., 0.15 M Tris HCl; Gln pentapeptides; 52 values measured, rest derived from surface fitting

| Substance | First-Order Deamidation Halftimes of GlyXxxGlnYyyGly [days] |
| --- | --- |
| GlyHisGlnAlaGly (GHQAG; printed: GlyHisGlnAlaGly) | 7200 |
| GlyHisGlnArgGly (GHQRG; printed: GlyHisGlnArgGly) | 4500 |
| GlyHisGlnAspGly (GHQDG; printed: GlyHisGlnAspGly) | 5600 |
| GlyHisGlnCysGly (GHQCG; printed: GlyHisGlnCysGly) | 2200 |
| GlyHisGlnGluGly (GHQEG; printed: GlyHisGlnGluGly) | 5800 |
| GlyHisGlnGlyGly (GHQGG; printed: GlyHisGlnGlyGly) | 850 |
| GlyHisGlnHisGly (GHQHG; printed: GlyHisGlnHisGly) | 7200 |
| GlyHisGlnIleGly (GHQIG; printed: GlyHisGlnIleGly) | 6700 |
| GlyHisGlnLeuGly (GHQLG; printed: GlyHisGlnLeuGly) | 6600 |
| GlyHisGlnLysGly (GHQKG; printed: GlyHisGlnLysGly) | 4000 |
| GlyHisGlnMetGly (GHQMG; printed: GlyHisGlnMetGly) | 5200 |
| GlyHisGlnPheGly (GHQFG; printed: GlyHisGlnPheGly) | 8600 |
| GlyHisGlnProGly (GHQPG; printed: GlyHisGlnProGly) | 11000 |
| GlyHisGlnSerGly (GHQSG; printed: GlyHisGlnSerGly) | 6300 |
| GlyHisGlnThrGly (GHQTG; printed: GlyHisGlnThrGly) | 5500 |
| GlyHisGlnTrpGly (GHQWG; printed: GlyHisGlnTrpGly) | 18000 |
| GlyHisGlnTyrGly (GHQYG; printed: GlyHisGlnTyrGly) | 14000 |
| GlyHisGlnValGly (GHQVG; printed: GlyHisGlnValGly) | 6800 |

| Substance | First-Order Deamidation Halftimes of GlyXxxGlnYyyGly [days] |
| --- | --- |
| GlyIleGlnAlaGly (GIQAG; printed: GlyIleGlnAlaGly) | 6200 |
| GlyIleGlnArgGly (GIQRG; printed: GlyIleGlnArgGly) | 7200 |
| GlyIleGlnAspGly (GIQDG; printed: GlyIleGlnAspGly) | 8100 |
| GlyIleGlnCysGly (GIQCG; printed: GlyIleGlnCysGly) | 2000 |
| GlyIleGlnGluGly (GIQEG; printed: GlyIleGlnGluGly) | 7700 |
| GlyIleGlnGlyGly (GIQGG; printed: GlyIleGlnGlyGly) | 620 |
| GlyIleGlnHisGly (GIQHG; printed: GlyIleGlnHisGly) | 6100 |
| GlyIleGlnIleGly (GIQIG; printed: GlyIleGlnIleGly) | 6500 |
| GlyIleGlnLeuGly (GIQLG; printed: GlyIleGlnLeuGly) | 6300 |
| GlyIleGlnLysGly (GIQKG; printed: GlyIleGlnLysGly) | 6100 |
| GlyIleGlnMetGly (GIQMG; printed: GlyIleGlnMetGly) | 5100 |
| GlyIleGlnPheGly (GIQFG; printed: GlyIleGlnPheGly) | 8100 |
| GlyIleGlnProGly (GIQPG; printed: GlyIleGlnProGly) | 10000 |
| GlyIleGlnSerGly (GIQSG; printed: GlyIleGlnSerGly) | 5800 |
| GlyIleGlnThrGly (GIQTG; printed: GlyIleGlnThrGly) | 5300 |
| GlyIleGlnTrpGly (GIQWG; printed: GlyIleGlnTrpGly) | 16000 |
| GlyIleGlnTyrGly (GIQYG; printed: GlyIleGlnTyrGly) | 12000 |
| GlyIleGlnValGly (GIQVG; printed: GlyIleGlnValGly) | 7100 |

From patent US20050118674A1, “Engineering of Controlled Deamidation Rates in Peptides, Proteins, and Similar Structures” (priority 2003, published 2005)
